Source: article PMC11730611

T1: coreROQ (Roquin, murine/human) (Mus musculus, UniProt Q4VGL6 171-326)
T1 sequence: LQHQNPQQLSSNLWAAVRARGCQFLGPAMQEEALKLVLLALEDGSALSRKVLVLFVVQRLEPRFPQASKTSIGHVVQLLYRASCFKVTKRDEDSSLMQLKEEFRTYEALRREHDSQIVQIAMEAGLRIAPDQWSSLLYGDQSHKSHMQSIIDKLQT

T2: extROQ (Roquin, murine/human) (Mus musculus, UniProt Q4VGL6 89-404)
T2 sequence: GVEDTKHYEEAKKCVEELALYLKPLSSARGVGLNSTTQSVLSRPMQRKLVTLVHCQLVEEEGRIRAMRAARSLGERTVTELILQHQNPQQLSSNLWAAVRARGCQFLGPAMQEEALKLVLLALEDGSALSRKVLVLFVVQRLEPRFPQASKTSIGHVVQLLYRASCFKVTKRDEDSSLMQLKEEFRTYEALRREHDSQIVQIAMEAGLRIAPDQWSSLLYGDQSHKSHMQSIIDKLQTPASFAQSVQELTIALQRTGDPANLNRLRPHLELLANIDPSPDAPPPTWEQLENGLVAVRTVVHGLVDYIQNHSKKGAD


Key:
Assay in all cases: EMSA
[1] = biological target: T1, coreROQ (Roquin, murine/human)
[2] = biological target: T2, extROQ (Roquin, murine/human)
[3] = biological target: T1, coreROQ (Roquin, murine/human); remark: listed apart in the source

Binder | Kd [1] [µM] | Kd [2] [µM] | binding result [3]
GCCUGCCAGUCCACACCGUUCUAGGUGCUGGACCCUGCUGGCUCUGGGC (structured_RNA) [MM 3'bulge] | 0.241 ± 0.0156 | 0.525 ± 0.0601 | –
GCCUGCCAGUACCCUCCAUAAAGUUCUAUUUACUGGGCUGGCUCUGGGC (structured_RNA) [dapical] | – | 0.488 ± 0.373 | no binding
GUCCCCUCUGCGCCGUUUUAGGCGUUUCUGGGCUGGC (structured_RNA) [EL (elephant Ox40 ADE)] | 0.534 ± 0.365 | 0.778 ± 0.157 | –
GGUGUGUUUAUUUCAGGAGACA (structured_RNA) [LI (lizard putative ADE)] | – | 1.84 ± 0.403 | –
GCCUGUAAGUACCCUCCACACCGUUCUAGGUGCUGGGCUUACUCUGGGC (structured_RNA) [dstem1] | 0.381 ± 0.0948 | 1.04 ± 0.139 | –
GCCUGUAAGUACCCUCUACACCGUUCUAGGUGCUAGGCUUACUCUGGGC (structured_RNA) [dstem2] | 0.451 ± 0.0469 | 0.978 ± 0.0769 | –
GCCUGCCAGUACCCUCCACACCGUUCUAGGUGCUGGGCUGGCUCUGGGC (structured_RNA) [MM (murine Ox40 ADE wt)] | 0.308 ± 0.0572 | 0.323 ± 0.139 | –
GGCCAUCUGCACCGUUCUAGGUGCCGAACUGGCU (structured_RNA) [HS 3'bulge] | 0.293 ± 0.149 | 0.475 ± 0.0626 | –
GCACCCUCCCACACCGUUUUAGGUGUUCUGGGUG (structured_RNA) [HE (hedgehog Ox40 ADE)] | 0.318 ± 0.0172 | 0.642 ± 0.119 | –
GGCCAGGACGCAGUAUUACUCUCGGGUC (structured_RNA) [OP (opossum ADE-like)] | – | – | no binding
GCCUGCCAGUCCACACCGUUCUAGGUGCUGGGCUGGCUCUGGGC (structured_RNA) [delta-bulge] | 0.299 ± 0.0416 | 0.479 ± 0.188 | –
GCCGAGCCUGAGUUUAUACAGUCCUUUGUGC (structured_RNA) [CH (chicken putative ADE)] | – | 4.46 ± 0.717 | –
GCCCUGUGCCGUUUUAGGCGCUCCUGGGC (structured_RNA) [DK (dolphin/killer whale Ox40 ADE)] | 0.48 ± 0.0247 | 0.847 ± 0.0774 | –
GGCGAACAGUGCAGCGUUCUAGCUGCCCUUCGCU (structured_RNA) [HS low pur.] | 0.432 ± 0.0626 | 0.673 ± 0.0652 | –
GGCCAACUCUGCACCGUUCUAGGUGCCGAUGGCU (structured_RNA) [HS (human Ox40 ADE wt)] | 0.295 ± 0.0296 | 0.386 ± 0.0637 | –
